According to patent publication US20250082770A1 (SYNAFFIX B V, published 2025):

What was measured:
CEACAM5 on MKN-45 cells = molecular target: T1, CEACAM5 on MKN-45 cells (UniProt P06731 35-702, limits assumed); assay: cell-based or functional assay
T1 sequence (looked up): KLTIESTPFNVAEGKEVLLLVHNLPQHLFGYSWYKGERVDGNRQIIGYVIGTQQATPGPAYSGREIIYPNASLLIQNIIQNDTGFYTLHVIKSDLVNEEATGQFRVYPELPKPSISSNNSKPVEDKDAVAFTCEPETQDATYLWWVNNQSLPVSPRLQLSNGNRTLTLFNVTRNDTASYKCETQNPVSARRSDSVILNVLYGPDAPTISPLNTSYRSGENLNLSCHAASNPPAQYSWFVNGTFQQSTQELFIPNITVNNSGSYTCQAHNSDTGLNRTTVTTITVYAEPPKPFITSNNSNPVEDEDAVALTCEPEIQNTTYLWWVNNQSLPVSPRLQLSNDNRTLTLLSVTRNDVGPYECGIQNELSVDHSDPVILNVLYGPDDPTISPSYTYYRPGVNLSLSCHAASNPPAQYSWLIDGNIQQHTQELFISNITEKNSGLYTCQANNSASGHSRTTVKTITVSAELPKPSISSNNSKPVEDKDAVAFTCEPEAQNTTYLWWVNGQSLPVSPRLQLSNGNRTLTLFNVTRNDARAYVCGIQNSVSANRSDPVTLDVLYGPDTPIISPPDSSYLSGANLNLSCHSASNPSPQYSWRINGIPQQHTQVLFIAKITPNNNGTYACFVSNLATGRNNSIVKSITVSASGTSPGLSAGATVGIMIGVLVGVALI

[1] = molecular target: T2, Human CEACAM5 (CD66e protein, His Tag, Sino Biological) (human, UniProt P06731 35-685); assay: ELISA, His-tagged antigen on nickel NTA plate, anti-human IgG-HRP detection
T2 construct: Bought His-tagged protein captured on nickel NTA plates; also called hCEACAM5; hCD66e; not shown: His tag
T2 sequence (looked up): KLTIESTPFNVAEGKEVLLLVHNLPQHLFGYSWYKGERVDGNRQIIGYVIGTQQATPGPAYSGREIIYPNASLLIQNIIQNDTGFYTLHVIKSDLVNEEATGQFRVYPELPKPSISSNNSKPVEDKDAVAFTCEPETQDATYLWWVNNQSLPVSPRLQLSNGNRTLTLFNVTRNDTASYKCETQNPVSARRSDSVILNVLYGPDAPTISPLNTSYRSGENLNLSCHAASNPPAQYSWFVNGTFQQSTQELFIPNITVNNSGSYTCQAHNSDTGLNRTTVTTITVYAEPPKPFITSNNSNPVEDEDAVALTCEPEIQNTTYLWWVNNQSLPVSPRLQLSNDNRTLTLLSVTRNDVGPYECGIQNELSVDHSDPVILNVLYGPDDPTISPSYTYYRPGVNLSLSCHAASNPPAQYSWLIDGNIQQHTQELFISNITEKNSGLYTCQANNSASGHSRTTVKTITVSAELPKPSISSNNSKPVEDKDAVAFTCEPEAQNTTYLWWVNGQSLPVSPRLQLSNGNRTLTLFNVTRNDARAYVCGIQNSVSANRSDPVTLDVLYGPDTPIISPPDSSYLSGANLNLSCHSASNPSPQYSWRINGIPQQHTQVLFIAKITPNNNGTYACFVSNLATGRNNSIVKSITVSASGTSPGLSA
Experimental: (§1) Nickel NTA plates (Pierce™ Nickel coated plated, ThermoScientific™) were washed three times prior to use. Human CEACAM5 (CD66e protein, His Tag, Sino Biological), human CEACAM6 (CD66c protein, His Tag, Sino Biological) and cynomolgus CEACAM5 (CD66e protein, His Tag, Sino Biological) were dissolved at a concentration of 0.05 μg/mL in 0.1% BSA in PBS (PBA). 100 μL was added to each well and incubated while shaking for 1 hour at room temperature. After removal, the plate was washed 3× with 0.05% Tween-20 in PBS (washing buffer). ADCs were diluted in 0.1% PBA to a final concentration of 8 μg/mL and 100 μL was added to each well (in triplo). ADCs were incubated for 1 h at room temperature. Prior to the addition of 100 μL 1:100 dilution of secondary antibody (Goat anti-human IgG, HRP conjugate, Invitrogen) the plate was washed 3× with washing buffer. The plate was incubated again for 1 h at room temperature and subsequently washed 3× with washing buffer and 3× with PBS. Finally, 100 μL TMB ELISA substrate (1 Step™ Turbo TMB ELISA substrate, ThermoScientific™) was added and incubated for 1 minute. The absorbance of the colorimetric signal was measured with Infinite® M1000 (Tecan) at 605 nm. Data was plotted corrected for the background (see FIGS. 9).

[2] = molecular target: T3, human CEACAM6 (CD66c protein, His Tag, Sino Biological) (human, UniProt P40199 35-320); assay: as above
T3 construct: Bought His-tagged protein captured on nickel NTA plates; also called hCEACAM6; hCD66c; not shown: His tag
T3 sequence (looked up): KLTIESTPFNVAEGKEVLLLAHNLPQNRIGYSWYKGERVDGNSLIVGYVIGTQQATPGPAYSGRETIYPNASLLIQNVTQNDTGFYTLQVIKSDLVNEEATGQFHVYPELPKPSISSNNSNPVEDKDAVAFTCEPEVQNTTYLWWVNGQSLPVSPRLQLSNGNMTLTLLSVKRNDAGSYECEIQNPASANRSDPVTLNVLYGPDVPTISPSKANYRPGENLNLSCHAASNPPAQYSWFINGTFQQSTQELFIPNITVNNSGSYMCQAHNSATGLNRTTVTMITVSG
Experimental: as §1

| Binder | MKN-45, IC50 (CEACAM5 on MKN-45 cells) [nM] | binding result [1] | binding result [2] |
| --- | --- | --- | --- |
| labetuzumab-3 (antibody, human IgG1, kappa, V domains shown, heavy-chain glycan trimmed to core GlcNAc, 6-N3-GalNAc attached and reacted with BCN-HS-PEG2-HS-(va-PAB-Ex)2 3 (exatecan payload); average DAR 3.90) VH: EVQLVESGGGVVQPGRSLRLSCSASGFDFTTYWMSWVRQAPGKGLEWIGEIHPDSSTINYAPSLKDRFTISRDNAKNTLFLQMDSLRPEDTGVYFCASLYFGFPWFAYWGQGTPVTVSS VL: DIQLTQSPSSLSASVGDRVTITCKASQDVGTSVAWYQQKPGKAPKLLIYWTSTRHTGVPSRFSGSGSGTDFTFTISSLQPEDIATYYCQQYSLYRSFGQGTKVEIKR | 6.5 |  |  |
| tusamitamab-DM4 (antibody, human IgG1, kappa, V domains shown, SPDB-DM4 conjugated, sites not stated; average DAR 3.4) VH: EVQLQESGPGLVKPGGSLSLSCAASGFVFSSYDMSWVRQTPERGLEWVAYISSGGGITYAPSTVKGRFTVSRDNAKNTLYLQMNSLTSEDTAVYYCAAHYFGSSGPFAYWGQGTLVTVSS VL: DIQMTQSPASLSASVDRVTITCRASENIFSYLAWYQQKPGKSPKLLVYNTRTLAEGVPSRFSGSGSGTDFSLTISSLQPEDFATYYCQHHYGTPFTFGSGTKLEIKR | 2.6 |  |  |
| tusamitamab-3 (antibody, human IgG1, kappa, V domains shown, heavy-chain glycan trimmed to core GlcNAc, 6-N3-GalNAc attached and reacted with BCN-HS-PEG2-HS-(va-PAB-Ex)2 3 (exatecan payload); average DAR 3.89) VH: EVQLQESGPGLVKPGGSLSLSCAASGFVFSSYDMSWVRQTPERGLEWVAYISSGGGITYAPSTVKGRFTVSRDNAKNTLYLQMNSLTSEDTAVYYCAAHYFGSSGPFAYWGQGTLVTVSS VL: DIQMTQSPASLSASVDRVTITCRASENIFSYLAWYQQKPGKSPKLLVYNTRTLAEGVPSRFSGSGSGTDFSLTISSLQPEDFATYYCQHHYGTPFTFGSGTKLEIKR | 3.4 |  |  |
| tusamitamab-6 (antibody, human IgG1, kappa, V domains shown, heavy-chain glycan trimmed to core GlcNAc, 6-N3-GalNAc attached and reacted with BCN-HS-PEG2-HS-(vc-PABA-Ahx-May)2 6 (maytansinoid payload); average DAR 3.85) VH: EVQLQESGPGLVKPGGSLSLSCAASGFVFSSYDMSWVRQTPERGLEWVAYISSGGGITYAPSTVKGRFTVSRDNAKNTLYLQMNSLTSEDTAVYYCAAHYFGSSGPFAYWGQGTLVTVSS VL: DIQMTQSPASLSASVDRVTITCRASENIFSYLAWYQQKPGKSPKLLVYNTRTLAEGVPSRFSGSGSGTDFSLTISSLQPEDFATYYCQHHYGTPFTFGSGTKLEIKR | 0.88 |  |  |
| B12-3 (antibody, human IgG1, kappa, V domains shown, heavy-chain glycan trimmed to core GlcNAc, 6-N3-GalNAc attached and reacted with BCN-HS-PEG2-HS-(va-PAB-Ex)2 3 (exatecan payload); average DAR 3.75) VH: QVQLVQSGAEVKKPGASVKVSCQASGYRFSNFVIHWVRQAPGQRFEWMGWINPYNGNKEFSAKFQDRVTFTADTSANTAYMELRSLRSADTAVYYCARVGPYSWDDSPQDNYYMDVWGKGTTVIVSS VL: EIVLTQSPGTLSLSPGERATFSCRSSHSIRSRRVAWYQHKPGQAPRLVIHGVSNRASGISDRFSGSGSGTDFTLTITRVEPEDFALYYCQVYGASSYTFGQGTKLERKR | > 100 |  |  |
| labetuzumab (antibody, human IgG1, kappa, V domains shown, IgG transiently expressed in CHO K1 cells; also called labetuzumab (II); hMN-14) VH: EVQLVESGGGVVQPGRSLRLSCSASGFDFTTYWMSWVRQAPGKGLEWIGEIHPDSSTINYAPSLKDRFTISRDNAKNTLFLQMDSLRPEDTGVYFCASLYFGFPWFAYWGQGTPVTVSS VL: DIQLTQSPSSLSASVGDRVTITCKASQDVGTSVAWYQQKPGKAPKLLIYWTSTRHTGVPSRFSGSGSGTDFTFTISSLQPEDIATYYCQQYSLYRSFGQGTKVEIKR |  | binds | no binding (tested: 8 µg/mL) |
| tusamitamab (antibody, human IgG1, kappa, V domains shown, IgG transiently expressed in CHO K1 cells; also called tusamitamab (I); huMAb2-3) VH: EVQLQESGPGLVKPGGSLSLSCAASGFVFSSYDMSWVRQTPERGLEWVAYISSGGGITYAPSTVKGRFTVSRDNAKNTLYLQMNSLTSEDTAVYYCAAHYFGSSGPFAYWGQGTLVTVSS VL: DIQMTQSPASLSASVDRVTITCRASENIFSYLAWYQQKPGKSPKLLVYNTRTLAEGVPSRFSGSGSGTDFSLTISSLQPEDFATYYCQHHYGTPFTFGSGTKLEIKR |  |  | no binding (tested: 8 µg/mL) |
